In patent publication US20020159989:

Test system: T1, recombinant MBP-peptide fusion protein (MBP-29)
T1 sequence: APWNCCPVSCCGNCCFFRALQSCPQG

Substance	enzymatic activity of MMP-9 after MMP-3 dependent activation ([3H]-labeled gelatin substrate)	enzymatic activity of MMP-9 ([3H]-labeled gelatin substrate, TCA soluble radioactivity)
ProMMP-9 activated with MBP-MMP3	MMP-3 dependent activation of MMP was inhibited in a dose-dependent manner	
proMMP-9 (CALBIOCHEM)		inhibited MMP-9 activity in a dose-dependent manner
